The target of the experiment is T1, UBE1L (1-1012aa) (UniProt P41226 1-1012).
T1 construct: In the cryo-EM sample its active-site cysteine was disulfide-linked to Cys86 of UBE2L6; also called UBA7; not shown: GST, N-terminal, cleaved
T1 sequence (looked up): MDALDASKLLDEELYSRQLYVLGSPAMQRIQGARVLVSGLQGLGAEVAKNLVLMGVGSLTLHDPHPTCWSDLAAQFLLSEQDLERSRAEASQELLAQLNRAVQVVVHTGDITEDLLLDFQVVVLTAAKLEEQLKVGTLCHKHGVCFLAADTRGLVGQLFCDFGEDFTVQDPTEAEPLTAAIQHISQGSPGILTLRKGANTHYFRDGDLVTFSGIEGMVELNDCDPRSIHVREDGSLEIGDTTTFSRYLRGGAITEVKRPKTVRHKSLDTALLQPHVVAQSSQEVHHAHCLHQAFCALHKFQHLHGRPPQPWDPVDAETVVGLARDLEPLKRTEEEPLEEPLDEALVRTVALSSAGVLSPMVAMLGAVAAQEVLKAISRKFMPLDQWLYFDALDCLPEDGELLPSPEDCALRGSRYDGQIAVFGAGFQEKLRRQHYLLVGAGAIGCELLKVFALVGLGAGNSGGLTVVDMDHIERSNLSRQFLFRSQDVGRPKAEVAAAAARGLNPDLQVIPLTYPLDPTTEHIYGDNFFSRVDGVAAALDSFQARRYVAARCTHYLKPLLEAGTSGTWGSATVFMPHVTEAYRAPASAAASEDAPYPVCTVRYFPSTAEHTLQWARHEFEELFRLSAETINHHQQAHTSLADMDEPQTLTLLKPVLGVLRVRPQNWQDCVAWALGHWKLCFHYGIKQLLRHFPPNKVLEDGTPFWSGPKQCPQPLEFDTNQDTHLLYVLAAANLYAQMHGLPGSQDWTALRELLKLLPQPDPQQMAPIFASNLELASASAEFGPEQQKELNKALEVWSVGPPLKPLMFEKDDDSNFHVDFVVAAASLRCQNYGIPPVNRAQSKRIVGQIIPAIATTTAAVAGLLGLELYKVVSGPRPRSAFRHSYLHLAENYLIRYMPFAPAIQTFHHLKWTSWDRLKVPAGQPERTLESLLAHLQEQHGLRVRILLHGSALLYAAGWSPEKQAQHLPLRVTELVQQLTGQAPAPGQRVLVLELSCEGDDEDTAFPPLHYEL
In words: cryo-EM structure. Particulars: both partners purified.

B1: UBE2L6^C86only (enzyme)
chain: MMASMRVVKELEDLQKKPPPYLRNLSSDDANVLVWHALLLPDQPPYHLKAFNLRISFPPEYPFKPPMIKFTTKIYHPNVDENGQICLPIISSENWKPSTKTSQVLEALNVLVNRPNIREPLRMDLADLLTQNPELFRKNAEEFTLRFGVDRPS
notes: non-catalytic cysteines mutated to serine; also called UBE2L6(C98S/C102S); UbcH8; not shown: 6xHis, N-terminal, cleaved; GST, N-terminal, cleaved
Turning to B1, the binding result is “binds”.

The values above are taken from article PMC10693564 (Nature Communications, 2023).
